Paper PMC11844729

Biological target: F-actin (actin filaments from rabbit skeletal muscle actin) (rabbit), P68135
Test: single-molecule TIRF microscopy
Settings: remark: other sources report otherwise

fold landing frequency on F-actin against mN2G^SR: 20 fold
B1: utrophin N-terminal fragment (amino acids 1 to 261)-sfGFP-6xHis, P46939 1-261 (domain or fragment)
chain: MAKYGEHEASPDNGQNEFSDIIKSRSDEHNDVQKKTFTKWINARFSKSGKPPINDMFTDLKDGRKLLDLLEGLTGTSLPKERGSTRVHALNNVNRVLQVLHQNNVELVNIGGTDIVDGNHKLTLGLLWSIILHWQVKDVMKDVMSDLQQTNSEKILLSWVRQTTRPYSQVNVLNFTTSWTDGLAFNAVLHRHKPDLFSWDKVVKMSPIERLEHAFSKAQTYLGIEKLLDPEDVAVQLPDKKSIIMYLTSLFEVLPQQVTID
modifications: here or on the partner: 30% DyLight-650 NHS ester-labelled and optionally 5% biotinylated (EZ-Link NHS-PEG4-biotin) actin
